Data taken from patent US9683217B2, “In vitro culture conditions for T-cell acute lymphoblastic leukemia/lymphoma” (THE UNIVERSITY OF MIAMI, priority 2013, dated 2017).

Tests used:
[1] = system: human T-ALL lymphoblasts; test: Cytokine/growth factor subtraction and IGF1R blockade, resazurin-reduction cell growth assay; assay type: cell-based; conditions: for importance of the supplemental cytokine for T-ALL growth: SCF, IGF-1, IL-2, IL-7 added alone or in combination, FIG. 3
Experimental: A resazurin-reduction cell growth assay was performed on (A-B) primary and (C) xenograft-expanded T-ALL. Cells were cultured and passaged as described in FIG. 1. Cytokines and growth factors were subtracted out of the complete media and cells were assayed for growth using a resazurin reduction assay. […] Significance: * p<0.05, ** p<0.01, and *** p<0.001.
Cell Titer Blue (Promega) was added to a co-culture, 5 μl/well for a 12-well plate and 1 μl/well for a 96-well plate, and allowed to incubate for 2-6 hours depending on the number and type of cells present in the well. Cultures were then analyzed using a Tecan GENios Flourometric plate reader. The plate reader was set to read from the bottom at 535 nm excitation and 590 nm emission wavelengths, at optimal gain with an integration time of 80 μs and a lag time of 0 μs. The plate was orbitally shaken in the machine for 5 sec prior to reading.
Studies were also conducted with human T-ALL primary cells (FIGS. 3A-3B) and human T-ALL cells that were previously expanded in immunodeficient NSG mice (FIG. 3C).

[2] = target: IGF1R (Homo sapiens, UniProt P08069); conditions: read-out: Kd of insulin for IGF1R; cited from earlier work

Molecule: IGF-1: ligand for a tyrosine kinase transmembrane receptor (CD221); recombinant supplement
- importance of the supplemental cytokine for T-ALL growth [1]: may be dispensable

Molecule: insulin: ligand for a tyrosine kinase transmembrane receptor (CD220); component of the basal medium
- Kd [2]: 200 to 400 nM

B1: IL-7: ligand for the IL-7 receptor; recombinant cytokine supplement (protein, UniProt P13232 26-177, looked up)
Interleukin-7: DCDIEGKDGKQYESVLMVSIDQLLDSMKEIGSNCLNNEFNFFKRHICDANKEGMFLFRAARKLRQFLKMNSTGDFDLHLLKVSEGTTILLNCTGQVKGRKPAALGEAQPTKSLEENKSLKEQKKLNDLCFLKRLLQEIKTCWNKILMGTKEH
- importance of the supplemental cytokine for T-ALL growth [1]: the most important factor

B2: CP-751,871: an IGF-1 receptor (IGF1R) blocking antibody, specific for human IGF1R (antibody, chains of the INN, looked up)
heavy: EVQLLESGGGLVQPGGSLRLSCTASGFTFSSYAMNWVRQAPGKGLEWVSAISGSGGTTFYADSVKGRFTISRDNSRTTLYLQMNSLRAEDTAVYYCAKDLGWSDSYYYYYGMDVWGQGTTVTVSSASTKGPSVFPLAPCSRSTSESTAALGCLVKDYFPEPVTVSWNSGALTSGVHTFPAVLQSSGLYSLSSVVTVPSSNFGTQTYTCNVDHKPSNTKVDKTVERKCCVECPPCPAPPVAGPSVFLFPPKPKDTLMISRTPEVTCVVVDVSHEDPEVQFNWYVDGVEVHNAKTKPREEQFNSTFRVVSVLTVVHQDWLNGKEYKCKVSNKGLPAPIEKTISKTKGQPREPQVYTLPPSREEMTKNQVSLTCLVKGFYPSDIAVEWESNGQPENNYKTTPPMLDSDGSFFLYSKLTVDKSRWQQGNVFSCSVMHEALHNHYTQKSLSLSPG
light: DIQMTQFPSSLSASVGDRVTITCRASQGIRNDLGWYQQKPGKAPKRLIYAASRLHRGVPSRFSGSGSGTEFTLTISSLQPEDFATYYCLQHNSYPCSFGQGTKLEIKRTVAAPSVFIFPPSDEQLKSGTASVVCLLNNFYPREAKVQWKVDNALQSGNSQESVTEQDSKDSTYSLSSTLTLSKADYEKHKVYACEVTHQGLSSPVTKSFNRGEC
- effect of IGF1R blocking antibody on cell growth ([1]; T-ALL on mouse MS5-DL1 feeders): significantly impaired cell growth
